Measurements from US5008241A, “Novel insulin peptides” (Novo Nordisk A/S, priority 1985, dated 1991).

Columns and labels:
[1] = from Diabetes Care, Vol. 6/Supplement 1 (1983), 4; cited from earlier work
[2] = Deamidation products formed on storage at 25° C., pH 3, DISC PAGE analysis; format: physicochemical; settings: 0.24 mM analog, 3 Zn++ per hexamer
Procedure: Deamidation products formed per month after storage 25 at 25° C. and a pH value of 3.
The compositions tested were as follows: 0.24 mM insulin analog, 0.3% (w/v) m-cresol, 1.6% (w/v) glycerol, 3 Zn^++ per insulin hexamer and 0.01 M sodium acetate to obtain a pH value of 3. The determinations were made using DISC PAGE analysis.

[3] = Di- and polymerization products formed on storage at 25 C, HPSEC; format: physicochemical; settings: 3 Zn++ per hexamer
Procedure: The compositions tested were as follows: 0.24 mM insulin analog, 0.3% /w/v) m-cresol, 1.6% (w/v) glycerol, 0.01 M sodium acetate and 3 Zn^++ per insulin hexamer. The determination was made using HPSEC (high performance size exclusion chromatography).
A reference insulin having Asn^A21 is included for comparison.

Substance | established potency [1] | Deamidation products formed per month [2] | Di- and polymerization products formed per month ([3]; pH of formulation 3.0, 0.24 mM analog) | Di- and polymerization products formed per month ([3]; pH of formulation 4.0, 0.24 mM analog) | Di- and polymerization products formed per month ([3]; pH of formulation 5.0, 0.24 mM analog)
monocomponent procine insulin: monocomponent porcine insulin | 28.5 U/mg dry substance |  |  |  | 
Arg^B27 Thr^B30 --NH2 human insulin |  | approx. 10% | 0.15% | 0.62% | 1.4%
